Measurements reported in paper PMC9482650, “Quantitative fragmentomics allow affinity mapping of interactomes” (Nature Communications, 2022).

These binders were tested against SNX27, Q96L92 (assay: holdup assay). Settings: plain residues with an end cap or a label only (N-terminal biotin on a linker: ado-ado).
Set-up: key: below the threshold = too weak to quantify, mostly under pKd 3.1 to 4
Work on VCMGDHWFDV [PRKN, O60260] yielded a pKd of 4.14.

What follows are binders tested against DLG1_3, Q12959 (assay: holdup assay). Settings: plain residues with an end cap or a label only (N-terminal biotin on a linker: ado-ado).
Sequence of DLG1_3, Q12959 (Q12959 457-571): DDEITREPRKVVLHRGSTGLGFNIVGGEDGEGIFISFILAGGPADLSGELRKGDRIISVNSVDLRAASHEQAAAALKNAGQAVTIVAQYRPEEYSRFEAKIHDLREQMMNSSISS
Set-up: key: below the threshold = too weak to quantify, mostly under pKd 3.1 to 4
VCMGDHWFDV [PRKN, O60260] was tested, and the pKd was “below the threshold”.

These binders were tested against T1, LIN7C, Q9NUP9 (assay: holdup assay). Settings: plain residues with an end cap or a label only (N-terminal biotin on a linker: ado-ado).
T1 sequence (Q9NUP9 88-185, limits assumed, looked up): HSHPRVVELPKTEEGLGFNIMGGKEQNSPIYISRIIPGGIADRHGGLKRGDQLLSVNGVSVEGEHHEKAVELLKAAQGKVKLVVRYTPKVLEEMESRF
Set-up: key: below the threshold = too weak to quantify, mostly under pKd 3.1 to 4
VCMGDHWFDV [PRKN, O60260] was tested, and the pKd was “below the threshold”.

The binders below were run against T2, GRIP1_4, Q9Y3R0 (assay: holdup assay). Settings: plain residues with an end cap or a label only (N-terminal biotin on a linker: ado-ado).
T2 sequence (Q9Y3R0 467-571, limits assumed, looked up): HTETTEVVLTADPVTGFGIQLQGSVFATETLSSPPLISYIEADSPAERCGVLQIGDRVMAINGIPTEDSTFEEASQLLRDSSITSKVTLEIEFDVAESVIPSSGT
Set-up: key: below the threshold = too weak to quantify, mostly under pKd 3.1 to 4
With VCMGDHWFDV [PRKN, O60260] the pKd was “below the threshold”.

Each binder was assayed against LAP2, Q96RT1 (assay: holdup assay). Settings: plain residues with an end cap or a label only (N-terminal biotin on a linker: ado-ado).
Sequence of LAP2, Q96RT1 (Q96RT1 other isoform, or with tags, fused parts or gaps): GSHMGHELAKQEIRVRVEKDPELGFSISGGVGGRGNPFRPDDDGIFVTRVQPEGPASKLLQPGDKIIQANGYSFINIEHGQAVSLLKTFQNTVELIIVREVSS
Set-up: key: below the threshold = too weak to quantify, mostly under pKd 3.1 to 4
VCMGDHWFDV [PRKN, O60260] showed a pKd of 3.67.

What follows are binders tested against Inadl_6, Q8NI35 (assay: holdup assay). Settings: plain residues with an end cap or a label only (N-terminal biotin on a linker: ado-ado).
Sequence of Inadl_6, Q8NI35 (Q8NI35 1058-1167): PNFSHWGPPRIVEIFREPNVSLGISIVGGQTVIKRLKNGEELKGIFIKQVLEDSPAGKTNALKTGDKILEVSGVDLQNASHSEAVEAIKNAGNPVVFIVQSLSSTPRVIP
Set-up: key: below the threshold = too weak to quantify, mostly under pKd 3.1 to 4
With VCMGDHWFDV [PRKN, O60260] the pKd was 3.7.

Each binder was assayed against Inadl_3, Q8NI35 (assay: holdup assay). Settings: plain residues with an end cap or a label only (N-terminal biotin on a linker: ado-ado).
Sequence of Inadl_3, Q8NI35 (Q8NI35 359-469): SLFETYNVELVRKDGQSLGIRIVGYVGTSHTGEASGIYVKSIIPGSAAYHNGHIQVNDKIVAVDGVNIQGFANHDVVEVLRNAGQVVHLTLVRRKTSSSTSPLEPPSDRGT
Set-up: key: below the threshold = too weak to quantify, mostly under pKd 3.1 to 4
VCMGDHWFDV [PRKN, O60260] showed a pKd of 4.9.

The binders below were run against SCRIB_2, Q14160 (assay: holdup assay). Settings: plain residues with an end cap or a label only (N-terminal biotin on a linker: ado-ado).
Sequence of SCRIB_2, Q14160 (Q14160 857-960): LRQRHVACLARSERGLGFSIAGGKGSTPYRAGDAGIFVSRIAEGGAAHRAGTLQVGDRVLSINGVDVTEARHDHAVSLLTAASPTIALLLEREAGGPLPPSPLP
Set-up: key: below the threshold = too weak to quantify, mostly under pKd 3.1 to 4
In the case of VCMGDHWFDV [PRKN, O60260], the pKd is reported as “below the threshold”.

The binders below were run against T3, SNTB1, Q13884 (assay: holdup assay). Settings: plain residues with an end cap or a label only (N-terminal biotin on a linker: ado-ado).
T3 sequence (Q13884 107-205, limits assumed, looked up): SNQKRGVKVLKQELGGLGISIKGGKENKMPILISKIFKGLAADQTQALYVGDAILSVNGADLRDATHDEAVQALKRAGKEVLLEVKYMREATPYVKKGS
Set-up: key: below the threshold = too weak to quantify, mostly under pKd 3.1 to 4
For VCMGDHWFDV [PRKN, O60260], the pKd was “below the threshold”.

Each binder was assayed against MAGI2_4, Q86UL8 (assay: holdup assay). Settings: plain residues with an end cap or a label only (N-terminal biotin on a linker: ado-ado).
Sequence of MAGI2_4, Q86UL8 (Q86UL8 772-865): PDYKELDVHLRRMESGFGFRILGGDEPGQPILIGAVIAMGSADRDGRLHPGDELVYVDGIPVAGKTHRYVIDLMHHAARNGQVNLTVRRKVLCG
Set-up: key: below the threshold = too weak to quantify, mostly under pKd 3.1 to 4
Binder VCMGDHWFDV [PRKN, O60260] has a pKd of 4.04.

Each binder was assayed against LNX1_2, Q8TBB1 (assay: holdup assay). Settings: plain residues with an end cap or a label only (N-terminal biotin on a linker: ado-ado).
Sequence of LNX1_2, Q8TBB1 (Q8TBB1 371-470): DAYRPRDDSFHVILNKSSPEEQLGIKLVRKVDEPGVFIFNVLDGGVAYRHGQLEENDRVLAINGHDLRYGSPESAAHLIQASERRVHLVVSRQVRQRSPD
Set-up: key: below the threshold = too weak to quantify, mostly under pKd 3.1 to 4
VCMGDHWFDV [PRKN, O60260] showed a pKd of 4.07.

These binders were tested against T4, APBA3_1, O96018 (assay: holdup assay). Settings: plain residues with an end cap or a label only (N-terminal biotin on a linker: ado-ado).
T4 sequence (O96018 389-490, limits assumed, looked up): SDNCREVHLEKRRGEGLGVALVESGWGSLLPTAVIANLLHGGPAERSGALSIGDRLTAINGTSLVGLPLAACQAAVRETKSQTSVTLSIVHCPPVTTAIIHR
Set-up: key: below the threshold = too weak to quantify, mostly under pKd 3.1 to 4
In the case of VCMGDHWFDV [PRKN, O60260], the pKd is reported as “below the threshold”.

Each binder was assayed against T5, NHERF3_4, Q5T2W1 (assay: holdup assay). Settings: plain residues with an end cap or a label only (N-terminal biotin on a linker: ado-ado).
T5 sequence (Q5T2W1 373-468, limits assumed, looked up): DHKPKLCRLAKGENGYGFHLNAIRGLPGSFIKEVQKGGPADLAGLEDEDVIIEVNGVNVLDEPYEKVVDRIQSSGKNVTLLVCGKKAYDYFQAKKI
Set-up: key: below the threshold = too weak to quantify, mostly under pKd 3.1 to 4
With VCMGDHWFDV [PRKN, O60260] the pKd was “below the threshold”.

These binders were tested against LNX1_3, Q8TBB1 (assay: holdup assay). Settings: plain residues with an end cap or a label only (N-terminal biotin on a linker: ado-ado).
Sequence of LNX1_3, Q8TBB1 (Q8TBB1 500-596): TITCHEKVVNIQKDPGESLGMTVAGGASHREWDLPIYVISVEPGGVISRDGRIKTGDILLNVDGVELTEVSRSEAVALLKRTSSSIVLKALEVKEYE
Set-up: key: below the threshold = too weak to quantify, mostly under pKd 3.1 to 4
Work on VCMGDHWFDV [PRKN, O60260] yielded a pKd of 4.07.

What follows are binders tested against AHNAK1, Q09666 (assay: holdup assay). Settings: plain residues with an end cap or a label only (N-terminal biotin on a linker: ado-ado).
Sequence of AHNAK1, Q09666 (Q09666 4-100): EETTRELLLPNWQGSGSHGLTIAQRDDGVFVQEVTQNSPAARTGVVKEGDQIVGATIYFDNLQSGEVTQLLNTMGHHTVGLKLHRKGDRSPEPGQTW
Set-up: key: below the threshold = too weak to quantify, mostly under pKd 3.1 to 4
In the case of VCMGDHWFDV [PRKN, O60260], the pKd is reported as “below the threshold”.

The binders below were run against FRMPD2_2, Q68DX3 (assay: holdup assay). Settings: plain residues with an end cap or a label only (N-terminal biotin on a linker: ado-ado).
Sequence of FRMPD2_2, Q68DX3 (Q68DX3 944-1038): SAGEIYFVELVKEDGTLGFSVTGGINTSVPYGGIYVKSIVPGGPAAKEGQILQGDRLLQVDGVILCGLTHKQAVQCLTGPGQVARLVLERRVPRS
Set-up: key: below the threshold = too weak to quantify, mostly under pKd 3.1 to 4
In the case of VCMGDHWFDV [PRKN, O60260], the pKd is reported as “below the threshold”.

The binders below were run against IL16_4, Q14005 (assay: holdup assay). Settings: plain residues with an end cap or a label only (N-terminal biotin on a linker: ado-ado).
Sequence of IL16_4, Q14005 (Q14005 1229-1329): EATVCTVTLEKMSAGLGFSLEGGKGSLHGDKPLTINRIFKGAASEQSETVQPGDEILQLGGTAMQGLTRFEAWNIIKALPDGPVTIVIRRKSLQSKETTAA
Set-up: key: below the threshold = too weak to quantify, mostly under pKd 3.1 to 4
In the case of VCMGDHWFDV [PRKN, O60260], the pKd is reported as “below the threshold”.

These binders were tested against T6, ARHGEF11, O15085 (assay: holdup assay). Settings: plain residues with an end cap or a label only (N-terminal biotin on a linker: ado-ado).
T6 sequence (O15085 42-136, limits assumed, looked up): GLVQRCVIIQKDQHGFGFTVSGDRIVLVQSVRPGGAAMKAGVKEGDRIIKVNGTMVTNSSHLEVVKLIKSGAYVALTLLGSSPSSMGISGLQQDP
Set-up: key: below the threshold = too weak to quantify, mostly under pKd 3.1 to 4
VCMGDHWFDV [PRKN, O60260] gave a pKd of 4.18.

Each binder was assayed against T7, HTRA4, P83105 (assay: holdup assay). Settings: plain residues with an end cap or a label only (N-terminal biotin on a linker: ado-ado).
T7 sequence (P83105 378-476, limits assumed, looked up): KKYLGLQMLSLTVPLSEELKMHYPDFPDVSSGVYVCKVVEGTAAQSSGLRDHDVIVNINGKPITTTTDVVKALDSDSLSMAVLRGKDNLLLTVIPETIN
Set-up: key: below the threshold = too weak to quantify, mostly under pKd 3.1 to 4
For VCMGDHWFDV [PRKN, O60260], the pKd was 3.98.

Each binder was assayed against T8, TIAM2, Q8IVF5 (assay: holdup assay). Settings: plain residues with an end cap or a label only (N-terminal biotin on a linker: ado-ado).
T8 sequence (Q8IVF5 885-986, limits assumed, looked up): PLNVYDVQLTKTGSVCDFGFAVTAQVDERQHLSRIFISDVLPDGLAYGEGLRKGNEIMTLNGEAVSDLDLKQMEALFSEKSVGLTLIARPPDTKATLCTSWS
Set-up: key: below the threshold = too weak to quantify, mostly under pKd 3.1 to 4
In the case of VCMGDHWFDV [PRKN, O60260], the pKd is reported as “below the threshold”.

The binders below were run against T9, PDZRN3_1, Q9UPQ7 (assay: holdup assay). Settings: plain residues with an end cap or a label only (N-terminal biotin on a linker: ado-ado).
T9 sequence (Q9UPQ7 244-349, limits assumed, looked up): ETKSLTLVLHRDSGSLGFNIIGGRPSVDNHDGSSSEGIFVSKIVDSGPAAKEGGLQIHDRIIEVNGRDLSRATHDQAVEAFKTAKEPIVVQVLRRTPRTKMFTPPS
Set-up: key: below the threshold = too weak to quantify, mostly under pKd 3.1 to 4
VCMGDHWFDV [PRKN, O60260] was tested, and the pKd was “below the threshold”.

What follows are binders tested against TJP1_3, Q07157 (assay: holdup assay). Settings: plain residues with an end cap or a label only (N-terminal biotin on a linker: ado-ado).
Sequence of TJP1_3, Q07157 (Q07157 416-512): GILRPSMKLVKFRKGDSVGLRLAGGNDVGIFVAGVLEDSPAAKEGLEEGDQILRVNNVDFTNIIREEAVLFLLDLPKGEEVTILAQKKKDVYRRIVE
Set-up: key: below the threshold = too weak to quantify, mostly under pKd 3.1 to 4
For VCMGDHWFDV [PRKN, O60260], the pKd was “below the threshold”.

These binders were tested against T10, LNX2_3, Q8N448 (assay: holdup assay). Settings: plain residues with an end cap or a label only (N-terminal biotin on a linker: ado-ado).
T10 sequence (Q8N448 463-564, limits assumed, looked up): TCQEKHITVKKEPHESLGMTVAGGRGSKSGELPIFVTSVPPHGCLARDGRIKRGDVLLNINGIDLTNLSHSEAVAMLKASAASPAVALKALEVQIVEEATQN
Set-up: key: below the threshold = too weak to quantify, mostly under pKd 3.1 to 4
With VCMGDHWFDV [PRKN, O60260] the pKd was “below the threshold”.

The binders below were run against T11, PDZD2_2, O15018 (assay: holdup assay). Settings: plain residues with an end cap or a label only (N-terminal biotin on a linker: ado-ado).
T11 sequence (O15018 329-429, limits assumed, looked up): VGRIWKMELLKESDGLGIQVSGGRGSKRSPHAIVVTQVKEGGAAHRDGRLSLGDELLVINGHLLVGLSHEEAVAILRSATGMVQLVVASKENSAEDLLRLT
Set-up: key: below the threshold = too weak to quantify, mostly under pKd 3.1 to 4
For VCMGDHWFDV [PRKN, O60260], the pKd was 4.57.

The binders below were run against T12, SNTG2, Q9NY99 (assay: holdup assay). Settings: plain residues with an end cap or a label only (N-terminal biotin on a linker: ado-ado).
T12 sequence (Q9NY99 68-166, limits assumed, looked up): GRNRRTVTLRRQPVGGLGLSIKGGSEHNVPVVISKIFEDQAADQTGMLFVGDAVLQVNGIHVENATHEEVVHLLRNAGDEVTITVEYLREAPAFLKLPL
Set-up: key: below the threshold = too weak to quantify, mostly under pKd 3.1 to 4
VCMGDHWFDV [PRKN, O60260] was tested, and the pKd was “below the threshold”.

These binders were tested against DLG2_2, Q15700 (assay: holdup assay). Settings: plain residues with an end cap or a label only (N-terminal biotin on a linker: ado-ado).
Sequence of DLG2_2, Q15700 (Q15700 189-283): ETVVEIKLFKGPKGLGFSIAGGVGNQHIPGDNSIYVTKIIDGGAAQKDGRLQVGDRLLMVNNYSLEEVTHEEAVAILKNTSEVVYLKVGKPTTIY
Set-up: key: below the threshold = too weak to quantify, mostly under pKd 3.1 to 4
For VCMGDHWFDV [PRKN, O60260], the pKd was “below the threshold”.
